To fix the notation:
B1: S009-F8-33.12 (antibody, human IgG1, kappa, V domains shown)
VH: EVQLQQSGAELVKPGASVKLSCTASAFNIKDYYMHWVKQRTEQGLEWIGRIDPEDGETKYAPKFQGKATITADTSSNTAYLQLSSLTSEDTAVYYCASGSGTGAMDYWGQGTSVTVSS
VL: DIVMTQSQKFMSTSVGDRVSITCKASQNVRTAVGWYQQKPGQSPKALIYLASNRHTGVPDRFTGSGSGTDFTLTISNVQSEDLADYFCLQHWNSPYTFGGGTKLVIKR
notes: human-murine chimeric antibody, human IgG1/kappa constant regions
B2: S009-F8-28.23 (antibody, human IgG1, kappa, V domains shown)
VH: EVQLVESGGDLVKPGGSLKLSCAASGFTFSSYAMSWVRQTPEKRLEWVATISDGGSYTYYPDNVEGRFTISRDNAKNNLYLQMSHLKSEDTAMYYCAGDRGYSYALDYWGQGTSVTVSS
VL: NIMMTQSPSSLAVSAGEKVTMSCKSSQSVLYSSNQKNYLAWYQQKPGQSPKLLIYWASTRESGVPDRFTGSGSGTDFTLTISSVQAEDLAVYYCHQYLSSLTFGAGTKLELKR
notes: as for B1
B3: S009-F8-22.23 (antibody, human IgG1, kappa, V domains shown)
VH: QVQLKQSGPGLVQPSQSLSITCTVSGFSLFSYGVHWVRQSPGKGLEWLGVIWSGGSTDYNAAFISRLSISKDNSKSQVFFKMNSLQADDTAMYYCARNGGSMITTLYYAMDYWGQGTSVTVSS
VL: DVVMTQTPLSLPVSLGDQASISCRSSQSLVHSYGNTYLHWYLQKPGQSPKLLIYKVSNRFSGVPDRFSGSGSGTDFTLKISRVEAEDLGVYFCSQSTHIPFTFGGGTKLEIKR
notes: as for B1
B4: S009-F6-76.1 (antibody, human IgG1, kappa, V domains shown)
VH: QVQLQQSGPELVKPGASVKISCKASGYTFTDYYINWVKQRPGQGLEWIGWIFPGRGSTFYYEKFKGKATLTVDKSSSTAYMLLSSLTSEDSAVYFCARRGDSAGYEDLDYWGQGTSVTVSS
VL: NIVMTQSPKFMSMSVGERVTLSCKASENVVTYVSWYQQKPKQSPKLLIYGASKRYTGVPDRFTGSGSATDFTLTISSVQAEDLGDYHCGQSYSYPYTFGGGTKLEIKR
notes: as for B1
B5: S009-F5-9.16 (antibody, human IgG1, kappa, V domains shown)
VH: EVQLRQSGPVLVKPGASVKMSCKASGYTFTDYFMNWVKPSHGKSLEWIGVINPSNGVINYNQRFKGKATLTVDKSSSTAYMELNSLTSEDSAVYYCARSYDFAWFAYWGQGTLVTVSA
VL: DVLMTQTPLSLPVSLGDQASISCRSSQNIVHSNGNTYLEWYLQKPGQSPKLLIYTVSNRFSGVPDRFSGSGSGTDFTLKISRVEAEDLGVYYCFQGSHVPYTFGGGTKLEIKR
notes: as for B1
B6: S009-F6-62.5 (antibody, human IgG1, kappa, V domains shown)
VH: QVQLQQPGTELVKPGASVKLSCRASGYTFTAYWMHWVKQRPGQGLEWIGNINPSNGGTDFNEKFKSKATLTVDKSSSTAYMQLSSLTSEDSAVYYCARGRGYFDVWGTGTTVTVSS
VL: DILLTQSPAILSVSPGERVSFSCRASKNIGTSIHWYQQRTNGSPRLLIKYASESISGIPSRFSGSGSGTDFTLNINSVESEDIADYYCQQSNSWPTLTFGAGTKLELKR
notes: as for B1
B7: S009-F4-127.10 (antibody, human IgG1, kappa, V domains shown)
VH: EVQLQQSGPVLVKPGASVKMSCKASGYTFTDYYMNWVKQSHGKSPEWIGVINPYNDVISYNQKFKGKATLTVDKSSSTAYMELNSLTSEDSAVYYCANYGSSYYAMDYWGQGTSVTVSS
VL: B3 VL with P12S, Y33N, H39Q, Y41S, K50N, S96T, I99V, K112R
notes: as for B1

This is an account of results in patent US20250250357A1 (NANJING ZAIMING PHARMACEUTICAL, published 2025).

Substitutions are numbered along the chain they refer to.

T2 sequence (Q13421 495-614): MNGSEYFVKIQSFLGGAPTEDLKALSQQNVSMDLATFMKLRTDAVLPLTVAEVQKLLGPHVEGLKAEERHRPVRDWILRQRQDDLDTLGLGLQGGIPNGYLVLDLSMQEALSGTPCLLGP

One test deals with T1, human MSLN-FL-his protein (human, UniProt Q13421 296-580).
T1 construct: made in HEK293E cells, purified on nickel column; also called hMSLN-FL-his; human MSLN full-length protein; not shown: His tag
T1 sequence (Q13421 other isoform, or with tags, fused parts or gaps): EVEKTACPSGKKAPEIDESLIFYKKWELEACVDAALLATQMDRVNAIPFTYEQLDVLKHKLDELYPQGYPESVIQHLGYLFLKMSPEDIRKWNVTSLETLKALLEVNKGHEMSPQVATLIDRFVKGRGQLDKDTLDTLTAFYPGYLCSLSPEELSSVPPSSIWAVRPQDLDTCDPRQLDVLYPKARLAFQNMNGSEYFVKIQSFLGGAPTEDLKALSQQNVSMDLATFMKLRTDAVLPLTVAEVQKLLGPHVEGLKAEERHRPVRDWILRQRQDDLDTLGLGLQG
Nature of the test: competitive ELISA; row F8-33.12.
Regarding B1, the competition rate stood at 62.8%.

Regarding B2, the competition rate was found to be 10%.

Turning to B3, the competition rate amounted to 60.3%.

The target in the next test is T1, human MSLN-FL-his protein. In words: competitive ELISA; row F8-9.16. On the technique in general: ELISA stands for enzyme-linked immunosorbent assay.
Regarding B1, the competition rate is -89.6%.

As for B2, the competition rate was -39.8%.

For the molecule B3, the competition rate was -158%.

A further test concerns the target T2, human MSLN-R3 protein (Met487-Ser606 of NCBI AAH09272.1) expressed on HEK293T-hMSLN-R3 cells (human, UniProt Q13421 487-606).
T2 construct: also called Region3
Nature of the test: FACS on HEK293T-hMSLN-R3 cells.
As for B4, the “Maximum mean fluorescence intensity” value is 135 and the binding result was “no binding”.

Consider B5, for which the EC50 (commonly the concentration giving half of the maximal effect) is 0.35 nM and the “Maximum mean fluorescence intensity” value was 63900.

For the molecule B6, the “Maximum mean fluorescence intensity” value stood at 186 and the binding result was “no binding”.

With B7, the EC50 came to 1.97 nM and the “Maximum mean fluorescence intensity” value worked out at 14200.

For a further test, the target named is T1, human MSLN-FL-his protein. Nature of the test: competitive ELISA; row F8-32.3.
B1: the competition rate was determined as 84.9%.

Turning to B2, the competition rate came to 22.9%.

Take B3: the competition rate came to 85.4%.

The next test addresses T1, human MSLN-FL-his protein. In words: competitive ELISA; row F8-22.23.
For B1, the competition rate was 96.6%.

For B2, the competition rate amounted to 38.6%.

Turning to B3, the competition rate was 95.7%.

For a further test, the target named is T3, human MSLN-R3 protein expressed on HEK293T cells (HEK293T-hMSLN-R3) (human, UniProt Q13421 487-606).
T3 construct: C-terminal limit uncertain
T3 sequence (Q13421 495-614): as the sequence (Q13421 495-614) above
Nature of the test: FACS on HEK293T-hMSLN-R3 cells.
Regarding B1, the “Maximum mean fluorescence intensity” value was 64 and the binding result is reported as “no binding”.

Consider B2, for which the “Maximum mean fluorescence intensity” value worked out at 51 and the binding result is “no binding”.

For B3, the “Maximum mean fluorescence intensity” value amounted to 404.

The target in a further test is T4, human MSLN protein endogenously expressed on OVCAR3 tumor cells (human, UniProt Q13421 296-598).
T4 construct: whole, on cells; endogenous expression on a tumor cell line; also called human mesothelin
In words: FACS on OVCAR3 cells.
B1: the midpoint of the response, the EC50, lay at 28.4 nM and the “Maximum mean fluorescence intensity” value is 2410.

For B2, the midpoint of the response, the EC50, lay at 59.8 nM and the “Maximum mean fluorescence intensity” value stood at 1290.

Regarding B3, the EC50 came out at 12.8 nM and the “Maximum mean fluorescence intensity” value turned out to be 5500.

Another test addresses T1, human MSLN-FL-his protein. Nature of the test: competitive ELISA; row F8-24.14.
As to B1, the competition rate is 95.5%.

For B2, the competition rate was found to be 33.6%.

As to B3, the competition rate turned out to be 92.4%.

The next test deals with T1, human MSLN-FL-his protein. In words: competitive ELISA; row F8-28.23.
Regarding B1, the competition rate came out at 102%.

B2: the competition rate amounted to 73.4%.

Regarding B3, the competition rate was determined as 100%.

For a further test, the target named is T5, human MSLN protein endogenously expressed on OVCAR3 tumor cells (human, UniProt Q13421 296-598).
T5 construct: whole, on cells; Endogenous target on OVCAR3 cells; kept apart from the recombinant full-length construct; also called mesothelin
Nature of the test: FACS on OVCAR3 cells.
As for B4, the EC50 is 4.13 nM and the “Maximum mean fluorescence intensity” value is 6810.

For B5, a half-maximal response (EC50) required 0.82 nM and the “Maximum mean fluorescence intensity” value came out at 3510.

As for B6, a half-maximal effect (EC50) was put at 0.31 nM and the “Maximum mean fluorescence intensity” value was 2600.

Take B7: the “Maximum mean fluorescence intensity” value came out at 3360.

Another test concerns the target T1, human MSLN-FL-his protein. Nature of the test: competitive ELISA; row F8-36.12.
Consider B1, for which the competition rate is -134%.

With B2, the competition rate was -79.5%.

With B3, the competition rate is -156%.

The target in a further test is T1, human MSLN-FL-his protein. Nature of the test: competitive ELISA; row F8-29.1.
For the molecule B1, the competition rate was 70.6%.

For B2, the competition rate is 18.8%.

As to B3, the competition rate worked out at 70%.

The target of another test is T6, human MSLN full-length protein (NCBI: AAH09272.1) expressed on HEK293T-hMSLN-B8 cells (human, UniProt Q13421 296-598).
T6 construct: Whole encoded precursor
T6 sequence (Q13421 other isoform, or with tags, fused parts or gaps limits assumed): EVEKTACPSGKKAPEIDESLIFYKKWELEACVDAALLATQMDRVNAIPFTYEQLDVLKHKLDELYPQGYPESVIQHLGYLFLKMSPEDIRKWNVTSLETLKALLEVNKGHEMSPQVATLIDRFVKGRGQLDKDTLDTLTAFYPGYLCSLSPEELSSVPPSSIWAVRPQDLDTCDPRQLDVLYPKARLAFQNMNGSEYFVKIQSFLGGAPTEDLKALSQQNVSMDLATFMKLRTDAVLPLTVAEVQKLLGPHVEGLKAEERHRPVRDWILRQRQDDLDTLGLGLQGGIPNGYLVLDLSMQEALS
Nature of the test: FACS on HEK293T-hMSLN-B8 cells.
As to B4, the EC50 amounted to 1.39 nM and the “Maximum mean fluorescence intensity” value was 231000.

For the molecule B5, a half-maximal effect (EC50) was put at 0.76 nM and the “Maximum mean fluorescence intensity” value was found to be 240000.

As for B6, the EC50 was 0.41 nM and the “Maximum mean fluorescence intensity” value came to 202000.

For the molecule B7, the EC50 was 6.07 nM and the “Maximum mean fluorescence intensity” value was 102000.

Another test addresses T1, human MSLN-FL-his protein. In words: competitive ELISA; row Tab021.
Consider B1, for which the competition rate amounted to 9.4%.

B2: the competition rate stood at 7.7%.

Turning to B3, the competition rate stood at 11.4%.

A further test addresses T1, human MSLN-FL-his protein. Nature of the test: competitive ELISA; row Tab142.
As for B1, the competition rate turned out to be 47.9%.

For the molecule B2, the competition rate was 9.8%.

On to B3, for which the competition rate was determined as 46.4%.

A further test has as its target T7, monkey MSLN full-length protein (NCBI: XP_028696439.1) expressed on HEK293T-monkey MSLN cells (monkey).
T7 construct: Whole encoded precursor
T7 chain: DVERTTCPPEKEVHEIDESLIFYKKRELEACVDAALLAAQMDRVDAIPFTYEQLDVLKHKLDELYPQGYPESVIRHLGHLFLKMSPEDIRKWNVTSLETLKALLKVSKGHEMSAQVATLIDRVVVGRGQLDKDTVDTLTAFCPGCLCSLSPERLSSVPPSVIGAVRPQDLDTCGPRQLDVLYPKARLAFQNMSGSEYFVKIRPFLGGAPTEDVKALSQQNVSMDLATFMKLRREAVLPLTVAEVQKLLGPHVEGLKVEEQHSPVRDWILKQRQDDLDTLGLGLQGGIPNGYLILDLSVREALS
In words: FACS on HEK293T-monkey MSLN cells.
With B4, the “Maximum mean fluorescence intensity” value was 131 and the binding result was “no binding”.

For B5, the “Maximum mean fluorescence intensity” value stood at 365 and the binding result is on record as “no binding”.

Regarding B6, the “Maximum mean fluorescence intensity” value is 202 and the binding result is recorded as “no binding”.

Regarding B7, the EC50 was determined as 3.42 nM and the “Maximum mean fluorescence intensity” value was found to be 41100.

The target in the next test is T1, human MSLN-FL-his protein. Nature of the test: SPR (Biacore), antibody captured on Protein A chip.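 Also: flow cell at 25 °C, antigen injected for 240 s at five concentrations from 200 nM downward, dissociation followed up to 600 s, double-referenced, fitted with Langmuir 1:1 model.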
As for B1, binding was put at a Kd of 5.77 nM; the koff (usually the first-order rate constant of dissociation) is 0.0361 s⁻¹; the on-rate (kon) – broadly, a measure of how fast the partners come together – amounted to 6.27e+06 M⁻¹ s⁻¹.

For B2, the equilibrium dissociation constant (Kd) (usually the constant that tells how readily two partners part at equilibrium) was determined as 44 nM, the koff is 0.00843 s⁻¹ and the kon stood at 192000 M⁻¹ s⁻¹.

Consider B3, for which the Kd was 6.35 nM, the koff is 0.00275 s⁻¹ and the kon came out at 433000 M⁻¹ s⁻¹.

A further test has as its target T1, human MSLN-FL-his protein. In words: competitive ELISA; row F8-8.22.
Regarding B1, the competition rate is 96%.

In the case of B2, the competition rate stood at 24.9%.

Regarding B3, the competition rate was 94%.
